Assay results as given in the nanobody polyreactivity screen of Harvey et al. (2022).

experiment: yeast display, Sf9 membrane polyspecificity reagent, FACS + sequencing; frameworks hold sequencing errors
Outline: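 A nanobody's polyreactivity label depends on the gate it was sorted from. Yeast display cells were stained with 10% biotinylated, detergent-solubilized Sf9 membrane reagent for 1 hour at 4 °C, enriched on streptavidin microbeads and sorted by FACS. The low and high (top ~1%) gates were set on anti-HA fluorescence for expression and streptavidin fluorescence for reagent binding.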

Sequence | polyreactivity (PSR sort gate)
QVQLVESGGGLVQAGGSLRLSCAASGRIFYKYAMGWYRPAPGKERELVAAISWSGGRTYYADSVKGRFTISRDNAKNTVYLQMNSLKPEDTAVYYCNAVYAGFLRVRYDYWGQGTQVTVSS | high polyreactivity
QVQLVESGGGLVQAGGSLRLSCAASGRIFYKYAMGWYRQAPGKERELVAAISWSGGRTYYADSVKGRFTISRDNAKNTVYLQMNSLKPEDTAVYYCAAVRGGASGGYDYWGQGTQVTVSS | high polyreactivity
QVQLVESGGGLVQAGGSLRLSCAASGRIFYKYVMGWYRQAPGNERELVATITSGGSTYYADSVKGRFTISRDNAKNTVYLQMNSLKPEDTAVYYCAARKYYSRAYDYWGQGTQVTVSS | high polyreactivity
QVQLVESGGGLVQAGGSLRLSCAASGRIFYLNAMGWYRQAPGKERELVAGITNSTTGTYYADSVKGRFTISRDNAKNTVYLQMNCLKPEDTAVYYCITDVAYEEPVETYDYWGQGTQVTVSS | low polyreactivity
QVQLVESGGGLVQAGGSLRLSCAASGRIFYNVMGWYRQAPGKERELVAAISSSGGRTYYADSVKGRFTISRDNAKNTVYLQMNSLKPEDTAVYYCAARAWYYGYWGQGTQVTVSS | high polyreactivity
QVQLVESGGGLVQAGGSLRLSCAASGRIFYNYAMGWYRQAPGKERELLAAISWSGTSTYYADSVKGRFTISRDNAKNTVYLQMNSLKPEDTAVYYCATDRTYTARGYYLEYHRYDYRGQGTQVTVSS | low polyreactivity
QVQLVESGGGLVQAGGSLRLSCAASGRIFYNYAMGWYRQAPGKERELVAAISGSGGSTYYADSVKGRFTISRDNAKKTVYLQMNSLKPEDTAVYYCSTSGPQYYSRNFDYWGQGTQVTVSS | low polyreactivity
QVQLVESGGGLVQAGGSLRLSCAASGRIFYNYAMGWYRQAPGKERELVAAISGSGGSTYYADSVKGRFTISRDNAKNTVYLQMNSLKPEDTAVYYCAKDYRWDRKFDYWGQGTQVTVSS | low polyreactivity
QVQLVESGGGLVQAGGSLRLSCAASGRIFYNYAMGWYRQAPGKERELVAAISGSGGSTYYADSVKGRFTISRDNAKNTVYLQMNSLKPEDTAVYYCNARDVVYLITPYFLVYVNLDYWGQGTQVTVSS | low polyreactivity
QVQLVESGGGLVQAGGSLRLSCAASGRIFYNYAMGWYRQAPGKERELVAAISSSGGSTYYADSVKGRFTISRDNAKNTVYLQMNSLKPEDTAVYYCAVRKQYSGRYYRAYDYWGQGTQVTVSS | high polyreactivity
QVQLVESGGGLVQAGGSLRLSCAASGRIFYPNAMGWYRQAPGKERELVAAISKRGGRTYYADSVKGRFTISRDNAKNTVYLQMNSLNPEDTAVYYCATRWASYPRTGRYDYWGQGTQVTVSS | high polyreactivity
QVQLVESGGGLVQAGGSLRLSCAASGRIFYPNDLGWYRQAPGKERELVAAITRDGSTNYADSVKGRFTISRDNAKNTVYLQMNSLKPEDTAVYYCAADISDWYIIRRMNYWGQGTQVTVSS | low polyreactivity
QVQLVESGGGLVQAGGSLRLSCAASGRIFYPYAMGWYRQAPGKERELVAAIRRSGVDTYYADSVKGRFTISRDNAKNTVYFQMNSLKPEDTAVYYCAADPYWFFPHYDSWGQGTQVTVSS | low polyreactivity
QVQLVESGGGLVQAGGSLRLSCAASGRIFYPYAMGWYRQAPGKERELVASITWRGGSTYYADSVKGRFTISRDNAKNTVYLQMNSLKPEDTAVYYCAAVPYSYTYVYLSHYDYWGQGTQVTVSS | low polyreactivity
QVQLVESGGGLVQAGGSLRLSCAASGRIFYPYAMGWYRQAPGKERELVAVISYSGGGTYYADSVKWRFTISRDNAKNTVYLQMNRMKPEDTAVYYCAAYADYSYYVYDYWGQGTQVTVSS | high polyreactivity
QVQLVESGGGLVQAGGSLRLSCAASGRIFYQNAMGWYRQAPGKERELVADISSGGSTYYADSVKGRFTISRDNAKNTVYLQMNSLKPEDTAVYYCNTPSGPGTVGSYRRKWYGYWGQGTQVTVSS | low polyreactivity
QVQLVESGGGLVQAGGSLRLSCAASGRIFYQYAMGWYRQAPGKERELVAAITRGGNTYYADSVKGRFTISRDNAKNTVYLQMNSLKPEDTAVYYCNARWHTTGYRYDYWGQGTQVTVSS | high polyreactivity
QVQLVESGGGLVQAGGSLRLSCAASGRIFYRNAMGWYRPAPGKERELVASITSAGRTYYADSVKGRFTISRDNAKNTVYLQMNSLKPEDTAVYYCAVRVAVLLNLYGYWGQGTQVTVSS | low polyreactivity
QVQLVESGGGLVQAGGSLRLSCAASGRIFYRNGMGWYRQAPGKERELVAAISYSGGRTYYADSVKGRFTISRYNAKNTVYLQMNSLKPEDTAVYYCAAQWFEDFLYPWLEYDYWGQGTQVTVSS | high polyreactivity
QVQLVESGGGLVQAGGSLRLSCAASGRIFYRYAMGWYRPAPGKERELVAAIRYSGGRTYYADSVKGRFTISRDNAKNTVYLQMISLKPEDTAVYYCAADGQWYYAPFRGGDYENDYWGQGTQVTVSS | low polyreactivity
QVQLVESGGGLVQAGGSLRLSCAASGRIFYRYAMGWYRQAPGKERELVAAITGSGGSTYYADSVKGRFTISRDNAKNTVYLQMNSLKPEDTAVYYCNAVYARYGSQGYEYWGHGTQVTVSS | high polyreactivity

Sequence | polyreactivity (PSR sort gate)
QVQLVESGGGLVQAGGSLRLSCAASGRIFYRYAMGWYRQAPGKERELVATITSGGGTHYADSVKGRFTISRDNAKNTVYLQMNSLKPEDTAVYYCAAVQWYGYPYYSWGQGTQVTVSS | low polyreactivity
QVQLVESGGGLVQAGGSLRLSCAASGRIFYRYTMGRYRQAPGKERELVAAITSSSGSTYYADSVKGRFTISRDNAKNTVYLQMNSLKPEDTAVYYCAARIYHDIDTRSYYWGQGTQVTVSS | high polyreactivity
QVQLVESGGGLVQAGGSLRLSCAASGRIFYRYTMGWYRQAPGKERELVAAITRSGSSTRYADSVKGRFTISRDYAKNTVYLQMNSLKPEDTAVYYCATRVTSRTSGFDYWGQGTQVTVSS | high polyreactivity
QVQLVESGGGLVQAGGSLRLSCAASGRIFYRYVMGWYRQAPGKERELVAAISRGGGTNYADSVKGRFTISRDNAKNTVYLQMNSLKPEDTAVYYCAARGSPGAGYYWGQGTQVTVSS | high polyreactivity
QVQLVESGGGLVQAGGSLRLSCAASGRIFYSIAMGWYRQAPGKERELVAAISRSGVRTYYADSVKGRFTISRDNAKNTVYLQMNSLKPEDTAVYYCAAVIYGTTPQDEYDYWGQGTQVTVSS | low polyreactivity
QVQLVESGGGLVQAGGSLRLSCAASGRIFYSYAMGWYRQAPGKERELVAAITDSGGSTYADSVKGRFTISRDNAKNTVYLQMNSLKPEDTAVYADSTYNWYYYYWGQGTQVTVSS | low polyreactivity
QVQLVESGGGLVQAGGSLRLSCAASGRIFYSYAMGWYRQAPGKERELVATISSAGSTYYADAVKGRFTISRDNAKNTVYLQMNSLKPEDTAVYYCAARRPRRYGYWGQGTQVTVSS | high polyreactivity
QVQLVESGGGLVQAGGSLRLSCAASGRIFYTNAMGWYRPAPGKERELVAAITRSGGRTYYADSVKGRFTISRDNAKNTVYLQMNSLKPEDTGVYYCAKVGYGHTGMGYWGQGTQVTVSS | high polyreactivity
QVQLVESGGGLVQAGGSLRLSCAASGRIFYVNAMGWYRQAPGKERELVAGIDDGVTTYYAVSVKGRFTSSRDNAKNTVYLQMNSLKPEDTAVYYCAKETLVILIYDYWGQGTQVTVSS | low polyreactivity
QVQLVESGGGLVQAGGSLRLSCAASGRIFYVYAMGWYRQAPGKEMELVATITSSGEGTYYADSVMGRFTISRDNAKNTVYLQMNSLKPEDTAVYYCARRYFVRFVHPPYYYWGQGTQVTVSS | low polyreactivity
QVQLVESGGGLVQAGGSLRLSCAASGRIFYVYAMGWYRQAPGKEREFVAAITRRSGSTYYADSVKGRFTISRDNAKNTVYFQMKSVKPEDTAVYSCNARLKYAIPQVPPYDYWGQGTQVTVSS | high polyreactivity
QVQLVESGGGLVQAGGSLRLSCAASGRIFYVYAMGWYRQAPGKERELVAAITQSGGRTYYADSVKGRFTISRDNAKNTVYLQMNSLKPEDTAVYYCAATWLGSRNLVHITLYYWGQGTQVTVSS | low polyreactivity
QVQLVESGGGLVQAGGSLRLSCAASGRIFYVYAMGWYRQAPGKERELVAAITSGGRTDYADSVKGRFTISRDNAKNTVYLQMNSLKPEDTAVYYCAVRGSYRGWYDYWGQGTQVTVSS | high polyreactivity
QVQLVESGGGLVQAGGSLRLSCAASGRIFYVYAMGWYRQAPGKERELVAAITWRGGTTYYADSVKGRFTISRDNAKNTVYLQMNSLKPEDTAVYYCNAKYFRSYYSIEYDYWGQGTQVTVSS | low polyreactivity
QVQLVESGGGLVQAGGSLRLSCAASGRIFYVYAMGWYRQAPGKERELVPAITSSGGSTYYADSVKGRFTISRDTAKNTVYLQMNSLKPEDTAVYYCAARERAGYSRIRYNYWGQGTQVTVSS | high polyreactivity
QVQLVESGGGLVQAGGSLRLSCAASGRIFYWNAMGWYRQAPGKERELVAAITYSTGSTYYADSVKGRFTISRDNAKNTVYLQMNSLKPEDTAVYYCAAEGPRGSWWALYDYWGQGTQVTVSS | low polyreactivity
QVQLVESGGGLVQAGGSLRLSCAASGRIFYWNAMGWYRQEPGKEREFVAAIRLSSGSTYYADSVKGRFTISRDNAKYTVYLQLNSLKPVDTAVYYCATRTYTYWGGSYPHFYWGQGTQVTVSS | high polyreactivity
QVQLVESGGGLVQAGGSLRLSCAASGRIFYYAMGWYRQAPGKERELVASITWSGGSTYYADSVKGRFTISRDNAKNTVYLQMNSLKPEDTAVYYCNADDLYTWYVVYNYWGQGTQVTVSS | low polyreactivity
QVQLVESGGGLVQAGGSLRLSCAASGRIFYYNAMGSYRQAPGKESELVAAIRRSGSRTYYADSVKGRFTISRDNSKNTVSLEMNSLKPEDTAVYYCAAKYASFAHHDSWGQGTQVTVSS | high polyreactivity
QVQLVESGGGLVQAGGSLRLSCAASGRIFYYNAMGWYRPAPGKERELVATITGSGGSTYYADSVKGRFTISRDNAKNTVYLQMNSLKPEDTAVYYCNATRWYYDFYKLDYWGQGTKVTVSS | low polyreactivity
